In patent publication US20250176833A1 one finds Kd and percent of cells bound data, which are given here for three substances.

The target in experiment [1] is Fc receptors on Mv4-11 cells. The experiment can be described thus: flow cytometry, titration of IRDye680RD-labeled protein on Mv4-11 cells, non-linear fit of normalized MFI. (In flow cytometry, cells or beads pass a laser one at a time.)
Experiment [2] deals with Fc receptors on HL-60 cells. Kind of experiment: flow cytometry, titration of IRDye680RD-labeled protein on HL-60 cells, non-linear fit of normalized MFI.
For experiment [3], the target named is Fc receptors on monocytes of human peripheral blood. Kind of experiment: flow cytometry on human peripheral blood with immune panel, monocyte gate (CD14 vs Fc-680).
The target of experiment [4] is Fc receptors on granulocytes of human peripheral blood. The experiment can be described thus: flow cytometry on human peripheral blood with immune panel, granulocyte gate (CD16 vs Fc-680).

As a reminder, the Kd is the equilibrium constant for the complex coming apart. “control IgG, labeled with IRDye680RD (antibody)”: the values for the Kd in experiment [1] and in experiment [2] were 1.7 nM and 5 nM, respectively.

For the substance “control scFv-Fc, labeled with IRDye680RD (Fc fusion)”, the equilibrium dissociation constant (Kd) is 1.5 nM in experiment [1] and 2.1 nM in experiment [2].

Turning to “human IgG1 Fc domain (hinge, CH2 and CH3; expressed with IL2 signal sequence), labeled with IRDye680RD (from UniProt P0DOX5 218-449)”, the dissociation constant Kd in experiment [1] was 0.4 nM; in experiment [2] it was 3.6 nM. Also, the values for the percent of cells bound in experiment [3] and in experiment [4] were 25% and 33%, respectively.
